Tests used:
[1] = biological target: T1, biotinylated B7-H3 (B7-H3b), immune checkpoint protein; assay: SPR (BIACORE 8K, single-cycle kinetics, 1:1 fit); biotinylated B7-H3 on a NeutrAvidin chip, peptide as analyte at 7.5-120 nM
T1 sequence (Q5ZPR3 whole entry, species assumed, looked up): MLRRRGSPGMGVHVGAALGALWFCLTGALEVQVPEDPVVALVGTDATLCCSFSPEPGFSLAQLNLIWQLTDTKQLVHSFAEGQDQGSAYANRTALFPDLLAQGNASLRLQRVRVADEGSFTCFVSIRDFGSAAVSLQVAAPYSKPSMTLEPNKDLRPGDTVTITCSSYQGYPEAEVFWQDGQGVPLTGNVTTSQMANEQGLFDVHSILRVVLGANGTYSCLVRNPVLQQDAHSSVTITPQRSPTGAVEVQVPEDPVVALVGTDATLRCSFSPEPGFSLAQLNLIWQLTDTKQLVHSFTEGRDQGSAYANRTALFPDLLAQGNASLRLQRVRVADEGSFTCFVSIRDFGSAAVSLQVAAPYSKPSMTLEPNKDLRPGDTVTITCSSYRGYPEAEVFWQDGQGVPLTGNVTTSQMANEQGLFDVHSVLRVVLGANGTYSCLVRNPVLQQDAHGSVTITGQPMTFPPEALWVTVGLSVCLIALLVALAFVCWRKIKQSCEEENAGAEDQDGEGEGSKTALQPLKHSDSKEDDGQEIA

[2] = biological target: T1, biotinylated B7-H3 (B7-H3b), immune checkpoint protein; assay: SPR, biotinylated B7-H3 on NeutrAvidin chip, peptide as analyte

koff [1]: 0.0448 s⁻¹
kon [1]: 955000 M⁻¹ s⁻¹
Kd [2]: 46.9 nM
B1: Met9Nle variant of B1.1 (methionine to norleucine variant of the selected cyclic, disulfide peptide) (peptide)
peptide: WALQLCHSXFYTCKSG
modifications: norleucine (Nle) at position 9; N-terminal acetylation (ac); lactam bridge Q4-K14; disulfide bond C6-C13

From patent US20260191974A1, “B7-H3 TARGETING LIGANDS AND METHODS OF USE” (The University of North Carolina at Chapel Hill, priority 2022, published 2026)
